According to publication PMC4344348, “Quantitative Analysis of Ligand-EGFR Interactions: A Platform for Screening Targeting Molecules” (PLoS ONE, 2015):

Target: T1, Epidermal growth factor receptor (UniProt P00533 25-645)
T1 construct: Epidermal growth factor receptor (EGFR), bought from Sigma-Aldrich; Coupled by its amines to the dextran of a CM5 chip (about 12,000 RU) for both SPR and AFM; also called EGFR; source: bought: Sigma-Aldrich
Test: SPR; Biacore X; EGFR amine-coupled to a CM5 chip, ligands flowed over; room temperature; running buffer PBS; flow 10 ul/min; regeneration 50 mM NaOH; channel without EGFR as control; EGF 0.25-4 uM, GE11 10-160 uM; KD from BIAEvaluation software
Conditions: both partners purified

B1: Peptide GE11 (peptide)
peptide: YHWYGYTPQNVI
notes: In solution for SPR; for AFM coupled to succinimide-modified silicon nitride tips; source: synthetic peptide, custom synthesized by Millipore
Kd: 459 µM
